Drawing on patent US20240067734A1, this text covers OD max for one molecule.

The target in the test is di muNKG2D ECD Fc avi (murine). Nature of the test: ELISA; biotinylated antigen on streptavidin plate.
Sequence of di muNKG2D ECD Fc avi (murine) (chain, as listed by the source limits assumed): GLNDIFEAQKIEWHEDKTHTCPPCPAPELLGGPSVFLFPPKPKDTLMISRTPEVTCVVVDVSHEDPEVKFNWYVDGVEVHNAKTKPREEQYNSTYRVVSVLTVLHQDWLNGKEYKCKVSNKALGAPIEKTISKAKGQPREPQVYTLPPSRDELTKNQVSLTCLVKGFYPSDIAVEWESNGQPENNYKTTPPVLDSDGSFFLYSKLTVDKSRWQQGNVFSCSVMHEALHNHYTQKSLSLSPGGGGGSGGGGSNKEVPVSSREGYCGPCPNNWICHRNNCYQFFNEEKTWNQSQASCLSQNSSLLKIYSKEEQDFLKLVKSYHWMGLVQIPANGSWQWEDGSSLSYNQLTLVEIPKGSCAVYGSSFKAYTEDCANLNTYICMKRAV

B1: anti-NKG2D antibody clone 001 (antibody, V domains shown)
VH: QQLEQSGGGLVTPGGSLKLCCIGSGFDFNTYWMTWVRQAPGKGLEWIGCIHGGSSGSTYYASWVNGRFTLSRDIDQSTGCLQVNSLTAADTAMYYCARPGYRSWSKTFDLWGQGTMVTVSS
VL: DIQMTQSPSSLSASVGDRVTITCRASQDISESLNWYQQKPGKAPKLLIYAASSLQSGVPSRFSGSGSGTDYTLTISSLQPEDFATYYCQQANSFPLTFGGGTKVEIK
In the case of B1, the OD max amounted to 0.2 OD.
